According to the nanobody polyreactivity screen of Harvey et al. (2022):

experiment: yeast display, Sf9 membrane polyspecificity reagent, FACS + sequencing; frameworks hold sequencing errors
Method in brief: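 Galactose induction of a Saccharomyces cerevisiae BJ5465 synthetic nanobody display library ran 36–48 hours. The cells were then stained for 1 hour at 4 °C with 10% biotinylated, detergent-solubilized Sf9 membrane reagent, pulled down on streptavidin microbeads and FACS-sorted into low and high (top ~1%) gates on expression and reagent-binding fluorescence. Labels for polyreactivity follow the gate of origin.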

Row | Sequence | polyreactivity (PSR sort gate)
1 | QVQLVESGGGLDQAGGSLRLTCAASGSTFQFYAMGWYRQAPGKERYLVAAISGAGGSTYYADSVKGRFTISRDNAKNTVYLQMNILKPEDTAVYYCNKVRRKQSVLTFDYWGQGTQVTVSS | high polyreactivity
2 | QVQLVESGGGLDQAGGSLRLTCAASRFNFNGYAMGSYSQAPRKERELVAGITSGGRTNYADSVKGRFTISRDNAKNTVYLQMNSLKPEDTAVYYCNRYKVSGYDYWGQGTQVTVSS | high polyreactivity
3 | QVQLVESGGGLDQAGGSLRLTSAASGSTFYRNAMGWYRQAPGKERELVAAITIRGGSTSFADSVKGRFTISRDNAKNTVYLQMNSLKPEDTAVYYCNADPRAEPGDWSYEMDYWGQGTQVTVSS | low polyreactivity
4 | QVQLVESGGGLDQAGGSLRLTWAASGSIIGRNFMGLYRQAPGKEREFLAAIRSSGATTYYADSVKGRFTISRDNAKYTVFLQMTSLKPEDTAVYYCNARPPYYTVQTGGYDYWGQGTQVTVSS | low polyreactivity
5 | QVQLVESGGGLDQAGGSLRVSCAASGSILRYTMGWYRQAPGKERELVAAITRSGTSTYYADSVKGRFTISRDNAKNTVYLQMNSLKPEDTAVYYCAADDHYGRGFQYYYWGQGTQVTVSS | high polyreactivity
6 | QVQLVESGGGLDQAGGSLRVSCAASGSTFHRNAMGWYRQAPGKERELVAAITSGGSTNYADSVKGRFTISRDNAKNTVYLQMNSLNPEDTAVYYCAKDYLHYNRGWYDYWGQGTQVTVSW | low polyreactivity
7 | QVQLVESGGGLDQAGGSRRLSCAASGITFGRNTMGWYRQSPGKERELVASISYSGTTTYYADSVKGRFTISPDNAKNTVYLQMNSLKPEDTAVYYCNKRWRYYDMDYWGQGTQVTVSS | low polyreactivity
8 | QVQLVESGGGLDQAGGSVRLSCAASGSTFDNYAMGWYRQAPGKEREWVAVISRSGTSTYYADSVKGRFTISRDNAKNTVYLQMNSLKPEDTAVYYCASAPSQVYRARFYYWGQGTQVTVSS | high polyreactivity
9 | QVQLVESGGGLDQARGSLRLSCAASGFTFKFYAMGWYRQSPGKEREFVAAISGSGDSTYADSVKGRFTISRDNAKNTVYLQMNSLKPEDTAVYYCNARYAGVPWWGYYSSEVNYWGQGTQVTVSS | low polyreactivity
10 | QVQLVESGGGLDQARGSLRLSCAASGLTFVEYAMGWYRQAPGKESELVADITISGGRTYYADSVKGRFTISRDNAKYTVYLQMNSLKPEDTAVYYCNAQSYLGVTHRGYIKNGYDYWGQGTQVTVSS | low polyreactivity
11 | QVQLVESGGGLDQARGSLRLSCAASGRIFYTYAMGWYRRAPGKERELVAAISRSGTSTYYADSVKGRFTISRDNAKNTVYLQMNSLKPEDTAVYYCAAAKWYSVAYVGTFKYDYWGQGTQVTVSS | high polyreactivity
12 | QVQLVESGGGLDQARGSLRLSCAASGSTFYYYAMGWYRQAPGKERELVAAITSRGGRTYYADSVKGRFTISRDNAKNTVYLQMNSLKPEDTAVYYCNARTIYYGFDYWGQGTQVTVSS | low polyreactivity
13 | QVQLVESGGGLDQEGGSLRLSCAASGSIFFWNDMGWYRQAPGKERELVAAISWSGGSTSYADSVKGRFTISRDNAKNTVYLQMNSLKPEDTAVYYCAAEYTYGSPYDYWGQGTQVTVSS | low polyreactivity
14 | QVQLVESGGGLEQAGGRLRLSCAASGSTFGGYAMGWFRQSPGTERQLVAAISGSGVRTYYADSVKGRFTISRDTAKNTVYLEMNSLNQEDTEVFYCAKRVRYPGDLYYYWGQGTQVTVSW | high polyreactivity
15 | QVQLVESGGGLEQAGGRLRLSCADSRRIFGRYAMGWYRQAPGKERELVAAINQSGSTTYYADSVKGRFTISRDNAKNTVYLQMNSLKPEDTAVYYCAADGNGVDYDYWGQGTQVTVSS | low polyreactivity
16 | QVQLVESGGGLFHAGGSLRLSCAAYGSTFPYYTMGWYRQAPGKERELVAAITTRGGGTYYADSVKGRFTISRDNAKNTVYIQMKSLKPEDTAVYYCAAKTIYYTRGIRHYYWGQVTQVTVSS | high polyreactivity
17 | QVQLVESGGGLFQAGGRLRLSCAASGSIFPPYAMGWYRQAPGKERELVAAINWSGGRTYYADSVKGRFTISRDHPKNTLYLHMNSLKPEDTEDYYGAADLRRYSGEYYYWGQRTQVTVSS | high polyreactivity
18 | QVQLVESGGGLFQAGGRLRLSCAASGYTFYLNAMGWYRQAPGKEREFVAVIDDSGDSTDYADSVKGRFTISRDNAKNTVYLQMHSLKPEDTAVYYCAANEGGTGDDYWGQGTQVTVSS | low polyreactivity
19 | QVQLVESGGGLFQAGGSLRISFAASGRIFGVNAMGWYRQAPGTQSELVAAISAGGGNTYYADSVKGRFTISRDNAKNTVYLQMNRLKPEDTAVYFCNVQRSLRMDFWGQGTQVTVSS | high polyreactivity
20 | QVQLVESGGGLFQAGGSLRISSAPSGRTYYRNAMGWYRQAPGIERELVAAISWSGGRTYYADSVKGRFTISRDNAKNTVYLQMNSLKPEDSAVYYCAALFIYRSYAALSRYDYWGQGTQVTVSS | high polyreactivity
21 | QVQLVESGGGLFQAGGSLRLSCAASGFIFGLYAMGWYRQAPGKEREFVAAISTSSGITYYADSVKGRFTISRDNAKNTVYLQMNSLKPEDTAVYDCAARGHYYDYWRQGTQVTVSS | low polyreactivity

Row | Sequence | polyreactivity (PSR sort gate)
22 | QVQLVESGGGLFQAGGSLRLSCAASGFIFYYNTMGWYRQAPGKERELVAAISSGGRTYYADSVKGRFTISRDNAKNTVYLQMNSLKPEDTAVYYCNVVTYVKYGCWGQGTQVTVSS | high polyreactivity
23 | QVQLVESGGGLFQAGGSLRLSCAASGFTFPHYMGWYRQAPGKERELVAAINVSGGSTSYADSVKGRFSISRDNAKNTVYLQMNSLKPEDTGVYFCAKDLRFRLFSYPSDYWGQGTQVTVSS | low polyreactivity
24 | QVQLVESGGGLFQAGGSLRLSCAASGFTFVDYAMAWYRQAPGKERELVAAITVSGDSTYYADSVKGRFTISRDNAKNTVYLQMNSLKRADTAFYYCAADPGYYYGGYWGQGTQVTVST | low polyreactivity
25 | QVQLVESGGGLFQAGGSLRLSCAASGFTPGNVRGCYRQAPGKERELVAAISWSADSTYYADSVKGRFTISRDNAKNTVNLQMKSLKREDSAVYYCSADGVPGRAVDYEYWRQGTQVTVSS | high polyreactivity
26 | QVQLVESGGGLFQAGGSLRLSCAASGGIFVDNAMGWYRQAPGKERELVAAISWSGGSTYYADSVKGRFTISRYHAKNTVYLQMNSLKPEDTAVYYCAKVYVEDEGYQWADYDYWGQGTQVTVSS | low polyreactivity
27 | QVQLVESGGGLFQAGGSLRLSCAASGGTFPYNAMGWYRPAPGKERELVATISFTDGSTYYADSVKGRFTLSRYIAKNTVYLQMNSLKPEDTAVYYCAKDYYRPGMDYWGQGTQVTVSS | low polyreactivity
28 | QVQLVESGGGLFQAGGSLRLSCAASGIIFYHYAMGWYRQAPGKERELVAAITRSGSRTYYADSVKGRFTISRDNAKNTVYLQLNSLKPEDTAVYYCAYRRRWYGIRNYYWGQGTQVTVSS | high polyreactivity
29 | QVQLVESGGGLFQAGGSLRLSCAASGISFWSYDMGWYRQAPGKERELVAAISRGGESTYYADSVKGRFTISRDLAKNTVYVQMNSLKPEDTAVYYCPALRPREEYYWGQGTQVTVSS | high polyreactivity
30 | QVQLVESGGGLFQAGGSLRLSCAASGITFERYTMGWYRQAPGKERELVAAIRGSGGTYYADSVKGRFTISRENAKNTVYLQMNSLKPEDTAVYYCNAVLWVYYHWPYDYWGQGTQVTVSS | high polyreactivity
31 | QVQLVESGGGLFQAGGSLRLSCAASGLIFRPYAMAWSRQAPGTERELVAAIRGSGGRTYYADSVKGRFTISRDNEKNTVYLQMNSLKPEDTAVYYCAVDVGRHTGYYYWGQGTQVTVSS | high polyreactivity
32 | QVQLVESGGGLFQAGGSLRLSCAASGRIFGAYTKRSYRQAPGKERELVAAITGRGGGTYYADSVKGRFTISRDNAKNTVYLQMNSLKPEDTAVYYCNVKLYYYYFRMYYWGQGTQVTVSS | low polyreactivity
33 | QVQLVESGGGLFQAGGSLRLSCAASGRIFGDNGMGWYRQAPGKERELVTYADSVKGRFTISRDNAKNTVYLQMNSLKPEDTAVYYCNKDPPRLSGLDENYWGQGTQVTVSS | low polyreactivity
34 | QVQLVESGGGLFQAGGSLRLSCAASGRIFGIYAMGWYRQAPGKERELVAAITRGSTYYADSVKGRFTISRDNAKNTVYLQMNSLKPEDTAVYYCNARPRVPGVLYLYDYLGQGTQVTVSS | high polyreactivity
35 | QVQLVESGGGLFQAGGSLRLSCAASGRIFQYHAMGWYRQAPGKERELVAAIRRGRGSTYYADSVKGRFTISRDYAKNTVYLQMNSLKPVDTAVYYCAARRKRVSFYPEYDFWGQGTQVTVSS | low polyreactivity
36 | QVQLVESGGGLFQAGGSLRLSCAASGRIFWNYAMGWYRQAPGKERELVASINWSGGSTYYADSVKGRFTISRDNAKNTVYLQMNSLKPEDTAVYYCNKDGRVYLDHDYWGQGTQVTVSS | low polyreactivity
37 | QVQLVESGGGLFQAGGSLRLSCAASGRIYRFYAMGWYRQAPGKERELVAAISASGGSTYYADSVKGRFTSSRDNAKNTVYLQMISLKPEVTAVYYCAAYSWGGGYYWGQGTQVTVSS | high polyreactivity
38 | QVQLVESGGGLFQAGGSLRLSCAASGRTFNFNVMGWYRQAPGKERELVAAMSKSTGSTFYADSVKGRFTISRDNAKNTVYLQMNSLKPEDTAGYYCAAKPSRSLYYYWGQGTQVTVSS | high polyreactivity
39 | QVQLVESGGGLFQAGGSLRLSCAASGRTFRTNAMGWYRQAPGKERELVAAITRSGGSTYADSVKGRFTISRDNAKNTVYLQMNSLKPEDTAVYYCATTRDWVYNYWGQGTQVTVSS | low polyreactivity
40 | QVQLVESGGGLFQAGGSLRLSCAASGRTFWRYAMAWYRQAPGKERELVARISWRGGSTNYADSVKGRFTISRDNAKNTVYLQMNSLKPAETAVYYFNAEVLNYLVFGYQLGYDYWGQGTQGTVSS | low polyreactivity
41 | QVQLVESGGGLFQAGGSLRLSCAASGRTFYNNAMGWYRQAPGKERELVATINNRGGTTYYADSVKGRFTISRDNAKNTVYLQMNSLKPEDTAVYYCAKSAQRYSYRYYYWGQGTQVTVSS | high polyreactivity
